US7727972B2, “Methods for determining absorption of cobalamin or analogues thereof” (DrugTech Corporation, priority 2004, dated 2010)
Values belong to the molecule of their own block, whether it stands above or below them.

What was measured:
[1] = target: T1, TC-bound 57Co cobalamin (cyanocobalamin-transcobalamin complex) (Homo sapiens, UniProt P20062); assay: Release of 57Co cyanocobalamin from transcobalamin using proteases; format: biochemical; settings: 50 U protease, human donor serum, TC captured on antibody-coated magnetic microspheres; 15 min (chymotrypsin 45 min); FIG. 1
T1 construct: from tissue; host or cells: human donor serum
T1 sequence (P20062 19-427): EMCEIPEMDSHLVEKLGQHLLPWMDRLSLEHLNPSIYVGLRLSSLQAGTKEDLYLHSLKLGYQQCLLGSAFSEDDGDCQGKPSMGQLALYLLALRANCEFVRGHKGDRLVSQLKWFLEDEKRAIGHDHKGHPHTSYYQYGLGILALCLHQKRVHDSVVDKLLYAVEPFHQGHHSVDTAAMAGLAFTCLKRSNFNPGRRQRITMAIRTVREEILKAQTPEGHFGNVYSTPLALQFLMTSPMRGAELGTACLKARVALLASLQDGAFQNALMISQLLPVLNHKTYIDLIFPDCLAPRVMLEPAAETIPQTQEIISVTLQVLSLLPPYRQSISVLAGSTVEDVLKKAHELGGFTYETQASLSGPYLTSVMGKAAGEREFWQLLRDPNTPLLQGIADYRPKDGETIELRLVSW
Method: 25 μl tracer solution and 2.5 μl cyanocobalamin solution were added to 400 μl human donor serum. Tris-HCl 0.1 M pH 7.4 was run as a control. After addition of 50 μl capturing reagent, the samples were incubated on a coulter mixer for 1 hour at room temperature. The samples were placed in a magnetic rack for 3 minutes for separation of the capturing reagent. Subsequently, the rack was inverted and incubated for another 3 minutes. The supernatant was discarded and 500 μl of washing buffer was added. The samples were vortexed and placed in the magnetic rack for 3 minutes. Subsequently, the rack was inverted again and the samples were incubated for another 3 minutes. After separation, the washing buffer was discarded and 50 U of subtilisin Carlsberg, in 200 μl Tris-HCl 0.1 M pH 7.4 5 mM Ca^2+, was added. After incubation for 15 minutes at 50° C. in a shaking water bath, the samples were put on a magnetic rack for 3 minutes for separation of the capturing reagent. The rack was inverted and incubated for another 3 minutes. The supernatant was discarded and the pellet was counted for 5 minutes on a gamma counter.
Similar experiments were performed with proteinase K (50 U) in Tris-HCl 0.1 M pH 7.4 5 mM Ca^2+ incubated at 37° C., thermolysin (50 U) in Tris-HCl 0.1 M pH 7.4 5 mM Ca^2+ 5 mM Zn^2+, and chymotrypsin (50 U) in Tris-HCl 0.1 M pH 7.4 incubated for 45 min. at 37° C. […]

[2] = system: Anti haptocorrin antibodies (ELISA); assay: Cross-reactivity of the haptocorrin ELISA towards other cobalamin binding proteins; design: species or system rabbit; settings: 100 nmol/L in the assay mixture
Method: Antibodies. Anti haptocorrin was produced by DakoCytomation A/S, Denmark by immunising rabbits with 200 μg pure haptocorrin produced as previously described (12) and deglycosylated as described above. The gamma globulin fraction was pre-pared (13) from serum obtained after 7 immunisations.
ELISA. The principle of the ELISA assay used was an immobilised capture antibody (0.1 ug gamma globulin/well, rabbit nr F7773) catching the analyte and a biotinylated detection antibody (gamma globulin 3 ug/L, rabbit nr 7772) visualised by avidin/Horse Radish Peroxidase (HRP). Colour development by addition of 3,3′,5,5′-tetramethyl-benzidin was proportional to the concentration of analyte. The assay procedure was as previously described for transcobalamin (14, 15). In brief, calibrator, sample or control (100 μL, final dilution 1:30) was incubated for 1 hour at room temperature prior to washing and incubation for 30 min with the biotinylated detection antibody. The attached biotinylated antibody was detected employing avidin/HRP and colour development was determined by measuring the absorbance at 420 nm and correcting for the absorbance at 620 nm. The calibrator employed was deglycosylated pure human haptocorrin. All samples were run in true duplicates, where deglycosylation was performed on two independent samples.
Samples. […]

release of cyanocobalamin from its complex with transcobalamin (counts remaining in the sample) [1]: most effective
B1: Proteinase K: proteinase K from Tritrachium album (EC 3.4.21.64) (Sigma Aldrich) (protein, UniProt P06873 106-384, looked up)
Proteinase K: AAQTNAPWGLARISSTSPGTSTYYYDESAGQGSCVYVIDTGIEASHPEFEGRAQMVKTYYYSSRDGNGHGTHCAGTVGSRTYGVAKKTQLFGVKVLDDNGSGQYSTIIAGMDFVASDKNNRNCPKGVVASLSLGGGYSSSVNSAAARLQSSGVMVAVAAGNNNADARNYSPASEPSVCTVGASDRYDRRSSFSNYGSVLDIFGPGTSILSTWIGGSTRSISGTSMATPHVAGLAAYLMTLGKTTAASACRYIADTANKGDLSNIPFGTVNLLAYNNYQA

release of cyanocobalamin from its complex with transcobalamin (counts remaining in the sample) [1]: most effective
B2: subtilisin Carlsberg: subtilisin Carlsberg from Bacillus licheniformis (EC 3.4.21.62) (Sigma Aldrich) (protein, UniProt P00780 106-379, looked up)
Subtilisin Carlsberg: AQTVPYGIPLIKADKVQAQGFKGANVKVAVLDTGIQASHPDLNVVGGASFVAGEAYNTDGNGHGTHVAGTVAALDNTTGVLGVAPSVSLYAVKVLNSSGSGSYSGIVSGIEWATTNGMDVINMSLGGASGSTAMKQAVDNAYAKGVVVVAAAGNSGSSGNTNTIGYPAKYDSVIAVGAVDSNSNRASFSSVGAELEVMAPGAGVYSTYPTNTYATLNGTSMASPHVAGAAALILSKHPNLSASQVRNRLSSTATYLGSSFYYGKGLINVEAAAQ

cross-reactivity in haptocorrin ELISA [2]: No cross-reactivity
B3: transcobalamin: cobalamin binding protein; pure TC dissolved in phosphate buffer 0.1 M containing albumin 0.1% (protein, UniProt P20062 19-427, looked up)
Transcobalamin-2: T1 sequence (P20062 19-427)
